Data published in publication PMC4967814 (Cell, 2016).
One block for each binder: values may come before it.

Legend:
human IL17F [1] = target: T1, human IL17F (Homo sapiens, UniProt Q96PD4); assay: SPR; Biacore T200; who was immobilised is not told for these mAbs (values of Table S3); conditions: both partners purified
T1 construct: interleukin-17F, human

human IL22 = target: T2, human IL22 (Homo sapiens, UniProt Q9GZX6); assay: as above; conditions: both partners purified
T2 construct: interleukin-22, human; also called interleukin-22
T2 sequence (Q9GZX6 34-179): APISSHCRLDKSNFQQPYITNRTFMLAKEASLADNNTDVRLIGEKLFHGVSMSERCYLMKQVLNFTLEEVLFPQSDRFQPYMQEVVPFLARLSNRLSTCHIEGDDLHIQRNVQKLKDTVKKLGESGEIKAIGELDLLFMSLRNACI

recombinant human IFNα4 = target: T3, recombinant human IFNα4 (Homo sapiens, UniProt P05014); assay: SPR; antibodies 19D11 and 26B9 immobilized on Biacore chips; different concentrations of recombinant human IFNs passed over; Biacore T200; conditions: both partners purified
T3 construct: interferon alpha-4, human; source: recombinant
T3 sequence (P05014 24-189): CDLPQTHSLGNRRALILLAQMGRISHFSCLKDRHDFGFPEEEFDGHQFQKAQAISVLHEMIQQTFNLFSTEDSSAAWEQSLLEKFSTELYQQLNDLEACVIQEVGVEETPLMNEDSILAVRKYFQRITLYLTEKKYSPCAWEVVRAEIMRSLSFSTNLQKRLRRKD

recombinant human IFNα14 = target: T4, recombinant human IFNα14 (Homo sapiens, UniProt P01570); assay: as above; conditions: both partners purified
T4 construct: interferon alpha-14, human; source: recombinant
T4 sequence (P01570 24-189): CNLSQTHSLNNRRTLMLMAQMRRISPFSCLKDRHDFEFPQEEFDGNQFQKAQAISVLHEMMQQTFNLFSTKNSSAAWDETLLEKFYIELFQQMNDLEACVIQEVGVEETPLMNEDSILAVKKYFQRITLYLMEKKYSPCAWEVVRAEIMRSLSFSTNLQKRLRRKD

recombinant human IFNω = target: T5, recombinant human IFNω (Homo sapiens, UniProt P05000); assay: as above; conditions: both partners purified
T5 construct: interferon omega-1, human; source: recombinant
T5 sequence (P05000 22-195): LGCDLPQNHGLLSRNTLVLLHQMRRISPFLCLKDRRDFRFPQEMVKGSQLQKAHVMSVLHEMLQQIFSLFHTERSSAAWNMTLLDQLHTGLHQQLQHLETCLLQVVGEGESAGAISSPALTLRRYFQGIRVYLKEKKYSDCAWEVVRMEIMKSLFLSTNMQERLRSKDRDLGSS

human IL17F [2] = target: T1, human IL17F; assay: ELISA; IL17F immobilized; mAbs and germline counterparts added

T1 sequence (Q96PD4 31-163): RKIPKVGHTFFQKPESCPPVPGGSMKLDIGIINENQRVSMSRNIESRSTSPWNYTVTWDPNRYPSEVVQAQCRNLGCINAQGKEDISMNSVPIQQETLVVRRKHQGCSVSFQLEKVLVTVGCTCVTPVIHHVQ

Kd (human IL17F [1]): < 10 pM
B1: 17E3, patient-derived IgGκ mAb specific for IL17F (antibody, V domains shown)
VH: QVQLVQSGAEVAKPGASVRLSCKASGFSFIKYYMHWVRQAPGQGLEWMGVIEPTGGGTSSAQKFRDRVTLSRDTSTATVHLEVSRLTLEDTGIYFCVRDSIYCKHGTCHRTVIDAFDIWGQGTAVTVSS
VL: DIQMTQSPSSLSASVGDRVTITCRSSQDIKNDLAWYQQKPGKAPERLIYAASNLQSGVPSRFSGSGSGTEFSLTISGLQPEDFATYYCLQHNSYPLLTFGGGTKVEIK
notes: kappa light chain; IgG1 kappa by the cloning vectors; source: recombinant

Kd (human IL22): 37 pM
B2: 30G1, patient-derived IgGκ antibody specific for IL22 (antibody, V domains shown)
VH: EVQLLESGGGLVQPGGSLRLSCAASGFTFSTYAMSWVRQAPGKGLEWVSTITSSGGATYHADSVKGRLTISRDNSKNTLYLEMNSLRVEDTAVYYCAKDWGRTVYAVIKDLDIWGQGTLVTVSS
VL: EIVMTQSPAILSVSPGERATLSCRASQSVSNYLAWFQQKPGQAPRLLIYDTSKRATGTPARFSGSGSGTDFTLTISSLEPEDFAVYFCQQRSDWPQYTFGQGTKLEIK
notes: as for B1

binding result (recombinant human IFNα4): binds | Kd (recombinant human IFNα14): 0.0328 pM | binding result (recombinant human IFNω): binds
B3: 26B9, APS1/APECED patient-derived anti-IFN monoclonal antibody (antibody, V domains shown)
VH: QILLQESGPGLVKPTETLSLTCSVSGDSISDSSHYWAWIRQPPGKGPEWIGSVYFSSMTHYNPSLKSRVSISVDKPKNQFSLKVTSVTVADTATYYCARQALARVGAMNWFDPWGQGSLVTVSS
VL: DIIMTQSPDSLPVSLGEGVTINCKSSQSVFFTSSNKSCLAWYQQKPGKSPKLLIYWASTRQSGVPDRFRGSGSGTDFSLTITSLQAEDVAVYFCQQCQTSPPTFGGGTRLEIK
notes: V regions cloned into vectors providing IgG1 and Ig-kappa constant regions; source: recombinant, harvested from transfected CHO cells (SPR); recombinant antibodies were also produced in HEK293T cells

Kd (human IL22): 54 pM
B4: fezakinumab, CHO cell-expressed form (in-house-expressed anti-IL22 mAb) (antibody, V domains shown)
VH: QVQLVQSGAEVKKPGASVKVSCKASGYTFTNYYMHWVRQAPGQGLEWVGWINPYTGSAFYAQKFRGRVTMTRDTSISTAYMELSRLRSDDTAVYYCAREPEKFDSDDSDVWGRGTLVTVSS
VL: QAVLTQPPSVSGAPGQRVTISCTGSSSNIGAGYGVHWYQQLPGTAPKLLIYGDSNRPSGVPDRFSGSKSGTSASLAITGLQAEDEADYYCQSYDNSLSGYVFGGGTQLTVL
notes: expressed as the patient mAbs (vectors providing IgG1 and light-chain constant regions); source: CHO cell-expressed; V regions ordered as CHO-codon-optimized synthetic constructs (GenScript)

Kd (human IL22): 39 pM
B5: 35G11, patient-derived IgGλ antibody specific for IL22 (antibody, V domains shown)
VH: QVQLVQSGSELRRPGASVNISCKASGYGFNTYAMNWVRQAPGQGPEWMGWINTDTGDPTYAQGFTGRFAFFLDTSASTAFLQITRLTGEDTAVYFCARTRNNWNGVYYHYSGLDVWGQGTTVTVSS
VL: QSVLTQPPSASGTPGQTVTISCSGSSPNLGDNYVYWYHQVPGTAPKLLIFRNTQRPSGVTDRFSGSKYGTSASLAISDLRSDDEGDFYCASWDDRLSRLVFGGGTKLTVL
notes: lambda light chain; IgG1 lambda by the cloning vectors; source: recombinant

binding result (recombinant human IFNω): no binding
B6: 19D11, APS1/APECED patient-derived anti-IFN monoclonal antibody (antibody, V domains shown)
VH: QVQLVQSGAEVKRPGSSVRVSCRASGDTFSSYPISWVRQAPGQGLEWMGRILPALGVTNYAQNFRGRITITADKSPLTAYLELSSLRFEDTAVYYCASPSADIIPSILGTTLFAFWGQGSLVTVSS
VL: EIVLTQSPGTLSLSPGEGATLSCRASQNVSRHYLTWYQQKPGQSPRLLIYGGSSRATGVPDRFSGGGSGTDFTLTISRLEPEDFAVFYCQSYHSPPPVYTFGQGTKVEIK
notes: as for B3

binding result (human IL17F [2]): binds
B7: 9A2, patient-derived IL17F-reactive mAb (antibody, V domains shown)
VH: EVQLEESGGGLVQPGGSLRLSCAASGFPFSNYEMNWVRQAPGKGLEWISYISVSGGPAHYADSVKGRFTISRDDATKSLFLQMNRLRADDTAVYYCVRREYVTGRNYNYYPYMDVWGTGTTVTVSP
VL: DIQMTQSPSSLSASVGDRVTITCRASQTISDYLNWYQHKPGEAPKLLIYSASTLQRGVPSRFSGSGSGTDFVFTISSLQSDDFATYYCQQTSSTALTFGGGTKVEVK
notes: source: recombinant
